How the values were obtained:
[1] = molecular target: human long form TSLP expressed on cell membrane; test: FACS on cells expressing the membrane human long-form TSLP fusion protein, MFI; fit of a flat curve (Bottom 626.4, Top ~ 628.6), see non_binding; unit taken from the concentration axis
[2] = molecular target: human long form TSLP expressed on cell membrane; test: FACS on cells expressing the membrane human long-form TSLP fusion protein, MFI; ambiguous fit of a flat curve (Bottom 609.8, Top ~ 596.1), see non_binding; unit taken from the concentration axis
[3] = molecular target: human long form TSLP expressed on cell membrane; test: FACS on cells expressing the membrane human long-form TSLP fusion protein, MFI; ambiguous fit of a flat curve (Bottom 799.3, Top 857.9), see non_binding; unit taken from the concentration axis
[4] = molecular target: human long form TSLP expressed on cell membrane; test: FACS on cells expressing the membrane human long-form TSLP fusion protein, MFI; ambiguous fit of a flat curve (~ 906.7, ~ 1190), column headed IC50, see non_binding; unit taken from the concentration axis
[5] = molecular target: human long form TSLP expressed on cell membrane; test: FACS on cells expressing the membrane human long-form TSLP fusion protein, MFI; fit of a flat curve (Bottom 695.0, Top 1001), see non_binding; unit taken from the concentration axis
[6] = molecular target: membrane short-form huTSLP fusion protein (human); test: FACS on cells expressing membrane short-form huTSLP, MFI; ambiguous fit of a flat curve (Bottom 692.9, Top 827.7), see non_binding; unit taken from the concentration axis
[7] = molecular target: human long-form TSLP protein (Acro, tsp-h5255 or tsp-h52ha) (human) (UniProt Q969D9); test: ELISA on coated human long-form TSLP, OD450; ambiguous fit of a flat curve (Bottom 0.07414, Top ~ 1078), see non_binding; unit taken from the concentration axis
Chain of human long-form TSLP protein (Acro, tsp-h5255 or tsp-h52ha) (human) (Q969D9 29-159 R127A/R130A limits assumed): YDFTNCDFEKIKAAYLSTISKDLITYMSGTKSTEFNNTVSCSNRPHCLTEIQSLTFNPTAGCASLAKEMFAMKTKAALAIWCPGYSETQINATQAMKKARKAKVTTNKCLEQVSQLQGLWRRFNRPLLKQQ

Chain of human long form TSLP expressed on cell membrane (fusion protein, as listed by the source): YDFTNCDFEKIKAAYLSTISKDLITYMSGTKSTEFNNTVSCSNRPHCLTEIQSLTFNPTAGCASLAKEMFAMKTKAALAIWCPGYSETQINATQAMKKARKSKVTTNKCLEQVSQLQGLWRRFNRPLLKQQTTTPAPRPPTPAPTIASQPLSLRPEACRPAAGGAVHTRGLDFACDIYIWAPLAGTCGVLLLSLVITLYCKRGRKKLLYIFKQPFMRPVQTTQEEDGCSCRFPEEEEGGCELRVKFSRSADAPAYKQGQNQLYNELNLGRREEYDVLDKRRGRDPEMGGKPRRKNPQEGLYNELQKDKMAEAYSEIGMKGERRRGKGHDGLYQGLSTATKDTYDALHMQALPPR
Chain of membrane short-form huTSLP fusion protein (human) (chain, as listed by the source limits assumed): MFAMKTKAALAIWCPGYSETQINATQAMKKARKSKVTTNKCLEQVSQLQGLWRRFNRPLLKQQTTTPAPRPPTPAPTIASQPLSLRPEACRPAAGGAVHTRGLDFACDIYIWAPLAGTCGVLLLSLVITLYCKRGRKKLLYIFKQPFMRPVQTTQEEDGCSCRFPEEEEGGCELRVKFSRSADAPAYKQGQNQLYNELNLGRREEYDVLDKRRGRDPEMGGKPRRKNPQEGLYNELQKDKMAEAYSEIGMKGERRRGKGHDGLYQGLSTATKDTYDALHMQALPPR

IgG2 Isotype (antibody)
EC50 [1]: 5.86 µg/mL
EC50 [2]: 0.322 µg/mL
EC50 [3]: 0.0117 µg/mL

Isotype (antibody)
EC50 [4]: 0.0411 µg/mL
EC50 [5]: 21.1 µg/mL

Isotype mAb (antibody)
EC50 [6]: 0.0115 µg/mL
EC50 [7]: 40.8 µg/mL
